Results taken from the supplement of paper PMC6755084.

Test system: F1*sub RNA substrate (template-directed ligation)
Test: fraction ligated after 30 min (ligated reads / total reads); higher = more ligase activity; sequences stand for … in GAGACCGCAACTGAAAAGTTGT…AGTTCTGCACGTAGAAGCAAAAGGC
Settings: 42 °C
Outline: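 Templates from an oligo pool were PCR-amplified, transcribed with T7 and gel-purified to give the ribozyme variants. Ligated and unligated products were separated on gel, reverse transcribed using barcoded primers, and read on a MiSeq. A quality filter of ≥20 was applied to core bases. Fraction ligated was taken as ligated reads as a share of all reads per variant.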

Sequence	fraction ligated
TATCACTTTGTAAGCACTTTGGATGGGTTGA [3d1468]	0.783
ATCACTTGTCGTAAGCCTTTGGATGGGTTGA [3d222]	0.744
TATCACTTGTCGTAAACACTTTGGATGGTTG [3d2102]	0.17
TATCACTTGGTAAACACTTTGGATGGGTTGA [3d1587]	0.826
TATCATTGCGAAGACACTTTGGATGGGTTGA [3d1158]	0.8
TACACTTGTCGTAAGACACTTGGATGGGTTA [3d719]	0.0331
TATCATTGTCGTAAGACACTTGGATGGTTGA [3d1273]	0.395
TATCACTTGCGTAAGCACTTTGATGGGTTGA [3d1653]	0.802
TATCACTTGGTAAGACCTTTGGATGGGTTGA [3d1590]	0.765
TATCCTTGTCGTAAGACACTTTGGATGGGTTG [2d108]	0.781
TATCACTTGTCGTAGACACTTTGGAGGGTTG [3d2054]	0.0621
TACATTGTCGTAAGACACTTTGGATGGGTTA [3d564]	0.0607
TCACTTGTCTAAGACACTTTGGATGGGTTGA [3d9]	0.768
TATACTTGTCGTAAGACACTTTGATGGGTTA [3d936]	0.0174
TTCACTTGTCGTAAGACATTTGGAGGGTTGA [3d480]	0.0169
TATCACTTGTCGTAAGACACTTTGGTGGGTT [3d2275]	0.011
ATACTTGTCTAAGACACTTTGGATGGGTTGA [3d52]	0.24
TATCCTTTCGAAGACACTTTGGATGGGTTGA [3d970]	0.8
TATCACTTGTCGTAAACACTTTGGTGGTTGA [3d2095]	0.0341
TACACTTGTCGTAAGACACTTGATGGGTTGA [3d715]	0.0512
TATCACTGTCGTAAGAACTTTGATGGGTTGA [3d1420]	0.652

Sequence	fraction ligated
ATCACTTGCGTAAGACACTTGGATGGGTTGA [3d149]	0.726
ACACTTGTGTAAGACACTTTGGATGGGTTGA [3d30]	0.407
ATCACTTGTCGTAAGACACTTTATGGGTTGA [3d260]	0.0125
TATCACTTGTCGTAAGCACTTTGGATGGTTG [3d2149]	0.17
TATCACTTGTGTAAGACATTTGGTGGGTTGA [3d1781]	0.0614
TATCCTTGTCGTAAGACCTTTGGATGGGTTG [3d1089]	0.762
TATCCTTTCGTAAGACACTTTGGAGGGTTGA [3d980]	0.0203
TATCACTGTCGTAAGCACTTTGGATGGGTTG [3d1417]	0.816
TATCACTTGTCGTAAAACTTTGGATGGTTGA [3d2064]	0.185
TATACTTGTCTAAGACACTTTGGTGGGTTGA [3d852]	0.0368
TACACTTGTCGAAGACACTTGGATGGGTTGA [3d652]	0.109
ATCACTTGTCTAAGACATTTGGATGGGTTGA [3d177]	0.756
TTCACTTGTCGAAGACACTTTGGATGGGTTGA [2d33]	0.775
ACACTTGTCGTAAGACCTTTGGATGGGTTGA [3d37]	0.627
TATCATTGTCGTAAGACATTTGGATGGGTTG [3d1268]	0.766
ATCACTTGTCGTAAGACACTGGATGGGTTGA [3d253]	0.701
TATCACTTGTCGAAGACACTTGGATGGGTTA [3d1962]	0.721
TATCACTTGTCGTAAGAACTTTGATGGGTTA [3d2170]	0.09
TATCAGTCGTAAGACACTTTGGATGGGTTGA [3d1121]	0.764
TATCACTTGTCGTAAGACACTTTGATGGTTGA [2d286]	0.0395
TATCACTTGTCAAGACACTTTGGATGGGTTA [3d1821]	0.781

Sequence	fraction ligated
TATCACTTGTGAAGACACTTTGGATGGGTTG [3d1730]	0.854
TATCACTGCGTAAGACACTTTGGAGGGTTGA [3d1339]	0.0829
TATCACTTTCGTAGACACTTGGATGGGTTGA [3d1512]	0.752
ATCACTTGTCGTAAACCTTTGGATGGGTTGA [3d212]	0.758
TATCACTTGTCGTGCACTTTGGATGGGTTGA [3d1982]	0.783
ATCACTTGTCGTAAGACCTTTGGTGGGTTGA [3d241]	0.0169
TACACTTGTCGTAAGACACTTTGGATGGTTGA [2d66]	0.644
TACACTTGTCGTAAGACACTTTGGATGGGTTA [2d67]	0.274
ATCACTTGTCGTAAGCACTTTGGATGGGTTG [3d230]	0.731
TACACTTGTCGTAAACATTTGGATGGGTTGA [3d674]	0.457
TATCATTGTCGTAAACACTTTGGATGGGTTA [3d1235]	0.472
TATCACTTGTCGTAAGCATTGGATGGGTTGA [3d2121]	0.756
TTCACTTGTCGTAAACACTTTGGATGGTTGA [3d449]	0.067
TACACTTGTCGTAAGACATTTGATGGGTTGA [3d708]	0.0186
TATCACTTGTCTAGACACTTTGGATGGTTGA [3d1833]	0.361
TATCATTGTCGTAAGACACTTTGGAGGTTGA [3d1286]	0.0106
TTCATTGTCGTAAGCACTTTGGATGGGTTGA [3d325]	0.176
ATCACTTGTGTAAACACTTTGGATGGGTTGA [3d159]	0.837
TATCACTTGTCGTAAGACCTTGGATGGGTTGA [2d262]	0.791
TACACTTGTCTAAACACTTTGGATGGGTTGA [3d634]	0.177
TATCACTTTCGAAGACACTTTGGTGGGTTGA [3d1501]	0.0423

Sequence	fraction ligated
TATCACTTGTCGAAGCACTTTGGTGGGTTGA [3d1930]	0.0884
TTCACTTGTCGTAAGCCTTTGGATGGGTTGA [3d453]	0.525
TATACTGTCGTAAGAACTTTGGATGGGTTGA [3d786]	0.809
TTCACTTGTTAAGACACTTTGGATGGGTTGA [3d387]	0.775
ATCACTTGCGTAAACACTTTGGATGGGTTGA [3d144]	0.758
TATCACTTGTCGAGACACTTTGGATGGGTTGA [2d208]	0.816
TATCACTTGTCGAAGACACTGGATGGGTTGA [3d1957]	0.767
TATCACTTGTCGTAAGACCTTTGGATGGTTG [3d2204]	0.139
TAACTTGTCGTAAGACACTTTGGATGGGTTGA [2d47]	0.271
TACACTTGCGTAAGACCTTTGGATGGGTTGA [3d608]	0.0714
TTCACTTGTCGTAGCACTTTGGATGGGTTGA [3d431]	0.735
TATCCTTGTGAAGACACTTTGGATGGGTTGA [3d1001]	0.792
TTCACTTGTCGTAAGACCTTTGGATGGTTGA [3d474]	0.523
TATCACTTGTCTAAGAACTTTGGTGGGTTGA [3d1859]	0.162
TATCACTGTCGTAAGACATTTGGTGGGTTGA [3d1435]	0.752
TATCACTTGTGTAAGACATTGGATGGGTTGA [3d1779]	0.848
ATCACTTGTCGTAGAACTTTGGATGGGTTGA [3d201]	0.867
TATACTTTCGTAAGACACTTTGGATGGTTGA [3d809]	0.0312
TATATTGTCGTAAGACATTTGGATGGGTTGA [3d769]	0.632
ACACTTGTCGTAAACACTTTGGATGGGTTGA [3d34]	0.201
